The text below walks through data of US20240309060A1, “POLYPEPTIDE BAX/NPM INHIBITORS” (TRUSTEES OF BOSTON UNIVERSITY, priority 2023, published 2024).

In assay [1] the target is human nucleophosmin 1 (NPM1) (human), P06748. Nature of the assay: SPR on human NPM1, mean of at least three peptide concentrations below saturation.
For assay [2] the target is unchanged. Nature of the assay: SPR on human NPM1, KD calculated as koff/kon.

Square brackets hold non-standard residues; d marks the D form. βAla = NCCC(=O)O

Chain of human nucleophosmin 1 (NPM1) (human), P06748 (P06748 whole entry): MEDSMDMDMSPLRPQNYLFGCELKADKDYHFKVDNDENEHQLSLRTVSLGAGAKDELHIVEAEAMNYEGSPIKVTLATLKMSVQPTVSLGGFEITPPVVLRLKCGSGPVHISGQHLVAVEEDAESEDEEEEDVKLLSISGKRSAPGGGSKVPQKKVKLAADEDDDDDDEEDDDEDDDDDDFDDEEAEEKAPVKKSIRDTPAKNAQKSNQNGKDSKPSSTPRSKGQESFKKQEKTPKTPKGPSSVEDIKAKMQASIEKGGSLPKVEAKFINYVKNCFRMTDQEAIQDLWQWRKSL

B1: NPMB1-I-011 (peptide)
peptide: Ac-RREEERREEERREEEK[βAla]TVTIFVAGVLTASLTIWKKMG-OH
SMILES: CC[C@H](C)[C@H](NC(=O)[C@@H](NC(=O)[C@H](CC(C)C)NC(=O)[C@H](CO)NC(=O)[C@H](C)NC(=O)[C@@H](NC(=O)[C@H](CC(C)C)NC(=O)[C@@H](NC(=O)CNC(=O)[C@H](C)NC(=O)[C@@H](NC(=O)[C@H](Cc1ccccc1)NC(=O)[C@@H](NC(=O)[C@@H](NC(=O)[C@@H](NC(=O)[C@@H](NC(=O)CCNC(=O)[C@H](CCCCN)NC(=O)[C@H](CCC(=O)O)NC(=O)[C@H](CCC(=O)O)NC(=O)[C@H](CCC(=O)O)NC(=O)[C@H](CCCNC(=N)N)NC(=O)[C@H](CCCNC(=N)N)NC(=O)[C@H](CCC(=O)O)NC(=O)[C@H](CCC(=O)O)NC(=O)[C@H](CCC(=O)O)NC(=O)[C@H](CCCNC(=N)N)NC(=O)[C@H](CCCNC(=N)N)NC(=O)[C@H](CCC(=O)O)NC(=O)[C@H](CCC(=O)O)NC(=O)[C@H](CCC(=O)O)NC(=O)[C@H](CCCNC(=N)N)NC(=O)[C@H](CCCNC(=N)N)NC(C)=O)[C@@H](C)O)C(C)C)[C@@H](C)O)[C@@H](C)CC)C(C)C)C(C)C)[C@@H](C)O)[C@@H](C)O)C(=O)N[C@@H](Cc1c[nH]c2ccccc12)C(=O)N[C@@H](CCCCN)C(=O)N[C@@H](CCCCN)C(=O)N[C@@H](CCSC)C(=O)NCC(=O)O
The term koff denotes the rate constant with which the complex falls apart. A lower koff goes with slow dissociation. One may read the kon as the rate constant with which the complex forms. Usually Kd stands for the free concentration of one partner at which half of the binding sites on the other are occupied at equilibrium, for simple one-to-one binding. As for B1, in assay [1], the koff is 0.0299 s⁻¹ and the kon worked out at 88500 M⁻¹ s⁻¹. The Kd in assay [2] was 337 nM.

B2: NPMB1-I-010 (peptide)
peptide: Ac-KKRRRKKRRRKKRRRK[βAla]TVTIFVAGVLTASLTIWKKMG-OH
SMILES: CC[C@H](C)[C@H](NC(=O)[C@@H](NC(=O)[C@H](CC(C)C)NC(=O)[C@H](CO)NC(=O)[C@H](C)NC(=O)[C@@H](NC(=O)[C@H](CC(C)C)NC(=O)[C@@H](NC(=O)CNC(=O)[C@H](C)NC(=O)[C@@H](NC(=O)[C@H](Cc1ccccc1)NC(=O)[C@@H](NC(=O)[C@@H](NC(=O)[C@@H](NC(=O)[C@@H](NC(=O)CCNC(=O)[C@H](CCCCN)NC(=O)[C@H](CCCNC(=N)N)NC(=O)[C@H](CCCNC(=N)N)NC(=O)[C@H](CCCNC(=N)N)NC(=O)[C@H](CCCCN)NC(=O)[C@H](CCCCN)NC(=O)[C@H](CCCNC(=N)N)NC(=O)[C@H](CCCNC(=N)N)NC(=O)[C@H](CCCNC(=N)N)NC(=O)[C@H](CCCCN)NC(=O)[C@H](CCCCN)NC(=O)[C@H](CCCNC(=N)N)NC(=O)[C@H](CCCNC(=N)N)NC(=O)[C@H](CCCNC(=N)N)NC(=O)[C@H](CCCCN)NC(=O)[C@H](CCCCN)NC(C)=O)[C@@H](C)O)C(C)C)[C@@H](C)O)[C@@H](C)CC)C(C)C)C(C)C)[C@@H](C)O)[C@@H](C)O)C(=O)N[C@@H](Cc1c[nH]c2ccccc12)C(=O)N[C@@H](CCCCN)C(=O)N[C@@H](CCCCN)C(=O)N[C@@H](CCSC)C(=O)NCC(=O)O
For the molecule B2, in assay [1], the koff is 0.0616 s⁻¹ and the on-rate (kon) amounted to 73200 M⁻¹ s⁻¹. The Kd in assay [2] was 842 nM.
